B1: GMB005-V1 CAR (other)
chain: EVQLLESGGGLVQPGGSLRLSCAVSGFTFNSFAMSWVRQAPGKGLEWVSAISGSGGGTYYADSVKGRFTISRDNSKNTLYLQMNSLRAEDTAVYFCAKDKILWFGEPVFDYWGQGTLVTVSSASGGGGSGGGGSGGGGSEIVLTQSPATLSLSPGERATLSCRASQSVSSYLAWYQQKPGQAPRLLIYDASNRATGIPARFSGSGSGTDFTLTISSLEPEDFAVYYCQQRSNWPPTFGQGTKVEIKGLAVSTISSFFPPGYQIYIWAPLAGTCGVLLLSLVITLYCKRGRKKLLYIFKQPFMRPVQTTQEEDGCSCRFPEEEEGGCELRVKFSRSADAPAYQQGQNQLYNELNLGRREEYDVLDKRRGRDPEMGGKPRRKNPQEGLYNELQKDKMAEAYSEIGMKGERRRGKGHDGLYQGLSTATKDTYDALHMQALPPR
B2: 13F11-V1 CAR (other)
chain: QIQLVQSGPELKKPGETVKISCKASGYTFKKYGMNWVKQAPGKGLKWMGWINTNTGEPTYAEEFKGRFAFSLETSASTAYLQINNLKNEDTATYFCARWYYGSTPSSYTMDYWGQGTSVTVSSGGGGSGGGGSGGGGSETTVTQSPASLSVATGEKVTIRCITSTDIDDDMNWYQQKPGEPPKVLISEGNTLRPGVPSRFSSSGYGTDFVFTIENTLSEDVADYYCLQSNNMPYTFGGGTKLEIKGLAVSTISSFFPPGYQIYIWAPLAGTCGVLLLSLVITLYCKRGRKKLLYIFKQPFMRPVQTTQEEDGCSCRFPEEEEGGCELRVKFSRSADAPAYQQGQNQLYNELNLGRREEYDVLDKRRGRDPEMGGKPRRKNPQEGLYNELQKDKMAEAYSEIGMKGERRRGKGHDGLYQGLSTATKDTYDALHMQALPPR
B3: 28F5-V1 CAR (other)
chain: QIQLVQSGPELKKPGETVKISCKASGYTFTKYGMNWVKQTPGKGLKWMGWINTNSGEPTYAEEFKGRFAFSLETSASTAYLQINNLKNEDTATYFCARGAYYRYDGEVSYYAMDYWGQGTSVTVSSGGGGSGGGGSGGGGSQIILTQSPAIMSASLGERVTMTCTATSSLSSSYLHWYQQKPGSSPKLWIYSTSHLASGVPARFSGGGSGTSYSLTISSMEAEDAATYYCHQYHLSPYTFGGGTKLEIKGLAVSTISSFFPPGYQIYIWAPLAGTCGVLLLSLVITLYCKRGRKKLLYIFKQPFMRPVQTTQEEDGCSCRFPEEEEGGCELRVKFSRSADAPAYQQGQNQLYNELNLGRREEYDVLDKRRGRDPEMGGKPRRKNPQEGLYNELQKDKMAEAYSEIGMKGERRRGKGHDGLYQGLSTATKDTYDALHMQALPPR
notes: Chimeric antigen receptor on T cells; signal peptide left out here
B4: 13F11-V3 CAR (other)
chain: QIQLVQSGPELKKPGETVKISCKASGYTFKKYGMNWVKQAPGKGLKWMGWINTNTGEPTYAEEFKGRFAFSLETSASTAYLQINNLKNEDTATYFCARWYYGSTPSSYTMDYWGQGTSVTVSSGGGGSGGGGSGGGGSETTVTQSPASLSVATGEKVTIRCITSTDIDDDMNWYQQKPGEPPKVLISEGNTLRPGVPSRFSSSGYGTDFVFTIENTLSEDVADYYCLQSNNMPYTFGGGTKLEIKEPKSPDKTHTCPPCPAPPVAGPSVFLFPPKPKDTLMIARTPEVTCVVVDVSHEDPEVKFNWYVDGVEVHNAKTKPREEQYNSTYRVVSVLTVLHQDWLNGKEYKCKVSNKALPAPIEKTISKAKGQPREPQVYTLPPSRDELTKNQVSLTCLVKGFYPSDIAVEWESNGQPENNYKTTPPVLDSDGSFFLYSKLTVDKSRWQQGNVFSCSVMHEALHNHYTQKSLSLSPGKIYIWAPLAGTCGVLLLSLVITLYCKRGRKKLLYIFKQPFMRPVQTTQEEDGCSCRFPEEEEGGCELRVKFSRSADAPAYQQGQNQLYNELNLGRREEYDVLDKRRGRDPEMGGKPRRKNPQEGLYNELQKDKMAEAYSEIGMKGERRRGKGHDGLYQGLSTATKDTYDALHMQALPPR
B5: 25A10-V2 CAR (other)
chain: EVQLQQSGAELVRPGASVKLSCTASGFNIKDSLIHWVKQRPEQGLEWIGWIDPEDDKTKYAPKFQDKATLTADTSSNTAYLQLSTLTSEDTAIYYCVSRYINYYFAYWGQGTTLTVSSGGGGSGGGGSGGGGSDIVMTQSPSSLTVTAGEKVTMSCKSSQSLLHSGNQRNYLTWYQQKPGQPPKLLIYWASTRESGVPDRFTGSGSGTDFTLTISSVQAEDLAVYYCQNDYDYPYTFGGGTKLEIKTTTPAPRPPTPAPTIASQPLSLRPEACRPAAGGAVHTRGLDFACDIYIWAPLAGTCGVLLLSLVITLYCKRGRKKLLYIFKQPFMRPVQTTQEEDGCSCRFPEEEEGGCELRVKFSRSADAPAYQQGQNQLYNELNLGRREEYDVLDKRRGRDPEMGGKPRRKNPQEGLYNELQKDKMAEAYSEIGMKGERRRGKGHDGLYQGLSTATKDTYDALHMQALPPR
notes: as for B3
B6: 25A10-V1 CAR (other)
chain: EVQLQQSGAELVRPGASVKLSCTASGFNIKDSLIHWVKQRPEQGLEWIGWIDPEDDKTKYAPKFQDKATLTADTSSNTAYLQLSTLTSEDTAIYYCVSRYINYYFAYWGQGTTLTVSSGGGGSGGGGSGGGGSDIVMTQSPSSLTVTAGEKVTMSCKSSQSLLHSGNQRNYLTWYQQKPGQPPKLLIYWASTRESGVPDRFTGSGSGTDFTLTISSVQAEDLAVYYCQNDYDYPYTFGGGTKLEIKGLAVSTISSFFPPGYQIYIWAPLAGTCGVLLLSLVITLYCKRGRKKLLYIFKQPFMRPVQTTQEEDGCSCRFPEEEEGGCELRVKFSRSADAPAYQQGQNQLYNELNLGRREEYDVLDKRRGRDPEMGGKPRRKNPQEGLYNELQKDKMAEAYSEIGMKGERRRGKGHDGLYQGLSTATKDTYDALHMQALPPR
notes: signal peptide left out here
B7: 16B5-V1 CAR (other)
chain: QAYLQQSGAELVRSGASVKMSCKASGYTFTSYNLHWVKQTPGQGLEWIGYIYPGNGGTNYNQKFKGKATLTADTSSSTAYMQISSLTSEDSAVYFCARGGIYYYGSSLDYWGQGTTLTVSSGGGGSGGGGSGGGGSNIVLTQSPASLAVSLGQRATISCRASESVDNYGTTFMYWYQQKPGQPPKLLIYLASNLESGVPARFSGSGSGTDFTLTIDPVEADDAATYYCQQNKEDPWTFGGGTKLEIKGLAVSTISSFFPPGYQIYIWAPLAGTCGVLLLSLVITLYCKRGRKKLLYIFKQPFMRPVQTTQEEDGCSCRFPEEEEGGCELRVKFSRSADAPAYQQGQNQLYNELNLGRREEYDVLDKRRGRDPEMGGKPRRKNPQEGLYNELQKDKMAEAYSEIGMKGERRRGKGHDGLYQGLSTATKDTYDALHMQALPPR
B8: 13F11-V2 CAR (other)
chain: QIQLVQSGPELKKPGETVKISCKASGYTFKKYGMNWVKQAPGKGLKWMGWINTNTGEPTYAEEFKGRFAFSLETSASTAYLQINNLKNEDTATYFCARWYYGSTPSSYTMDYWGQGTSVTVSSGGGGSGGGGSGGGGSETTVTQSPASLSVATGEKVTIRCITSTDIDDDMNWYQQKPGEPPKVLISEGNTLRPGVPSRFSSSGYGTDFVFTIENTLSEDVADYYCLQSNNMPYTFGGGTKLEIKTTTPAPRPPTPAPTIASQPLSLRPEACRPAAGGAVHTRGLDFACDIYIWAPLAGTCGVLLLSLVITLYCKRGRKKLLYIFKQPFMRPVQTTQEEDGCSCRFPEEEEGGCELRVKFSRSADAPAYQQGQNQLYNELNLGRREEYDVLDKRRGRDPEMGGKPRRKNPQEGLYNELQKDKMAEAYSEIGMKGERRRGKGHDGLYQGLSTATKDTYDALHMQALPPR
notes: as for B3
B9: 16B5-V2 CAR (other)
chain: QAYLQQSGAELVRSGASVKMSCKASGYTFTSYNLHWVKQTPGQGLEWIGYIYPGNGGTNYNQKFKGKATLTADTSSSTAYMQISSLTSEDSAVYFCARGGIYYYGSSLDYWGQGTTLTVSSGGGGSGGGGSGGGGSNIVLTQSPASLAVSLGQRATISCRASESVDNYGTTFMYWYQQKPGQPPKLLIYLASNLESGVPARFSGSGSGTDFTLTIDPVEADDAATYYCQQNKEDPWTFGGGTKLEIKTTTPAPRPPTPAPTIASQPLSLRPEACRPAAGGAVHTRGLDFACDIYIWAPLAGTCGVLLLSLVITLYCKRGRKKLLYIFKQPFMRPVQTTQEEDGCSCRFPEEEEGGCELRVKFSRSADAPAYQQGQNQLYNELNLGRREEYDVLDKRRGRDPEMGGKPRRKNPQEGLYNELQKDKMAEAYSEIGMKGERRRGKGHDGLYQGLSTATKDTYDALHMQALPPR

Columns and labels:
[1] = molecular target: CD38 antigen on the surface of cells (U266 CD38+, MOLP8, Daudi, T-ALL cell lines, activated T cells) (human, UniProt P28907 1-300); experiment: cell-based or functional assay
[2] = molecular target: T1, CD38-Fc protein (produced by LakePharma) (UniProt P28907 43-300, limits assumed); experiment: flow cytometry, CD38 Fc staining of CD38/TRAC double KO T cells transduced with rLV (FIG. 27C)
T1 construct: Staining reagent for CAR detection by flow cytometry; also called CD38-Fc fusion protein; not shown: Fc part
Experimental: The parameters are the following: T cells were activated by using Dynabeads CD3-CD28, the culture were made by using medium Xvivo+5% human serum heat inactivated+IL-2 20 ng/ml, a double KO (DKO) CD38-TRAC was performed by using a ratio of 2 μg TALEN mRNA per million of cells (5 million cells/cuvette); the transduction was performed by using rLV from Vectalys(France) at a MOI of 5.
The screening of the 4 CARs 25A10-v1, -v2, 28F5-v1 and -v2 after rLV transduction in DKO T cells has shown that all the CARs were expressed at the T cell surface with a high efficiency (>40%) and 3 of them above 80% (FIG. 27C). RQR8 expression was correlated with CAR expression (FIG. 27A). Most of the T cells were CD38 negative when T cells have been transduced by CD38 CARs (FIG. 27A). It is shown also that 60-85% of T cells endowed with the above 4 CARs were DKO TRAC/CD38 (FIG. 27B).

[3] = molecular target: T1, CD38-Fc protein (produced by LakePharma); experiment: flow cytometry, CD38-Fc fusion protein staining of purified CD38-deficient T cells transfected with CAR mRNA (FIG. 15)
Experimental: T cells were purified from buffy coat samples and activated using anti-CD3/CD28 coated beads and IL-2. CD38-1 TALEN mRNA was transfected in T cells at day 4 after activation, 6 days later CD38 negative cells were purified by using magnetic separation (Miltenyi). The day after, CAR mRNAs were transfected. The CAR expression and degranulation capacity of CART cells were assessed 24 hours after the transfection. CAR expression and cytotoxic capacity of CART cells were assessed 48 hours after the transfection.
All CARs were detected 24 h after transfection except the 25A10-V3 However, the latter expressed anti-CD38 CAR above the background. The 13F11-V2, 25A10-V1, 25A10-V2 and 28F5-V2 were highly expressed (more than 80%).

Row | Binder | ratio of degranulation against U266 CD38+ and U266 CD38- [1] [ratio] | % of T cells stained by CD38-Fc (CAR expression) [2] [%] | % of T cells stained by CD38-Fc (CAR expression) [3] [%]
1 | B1 | > 2 |  | 
2 | B2 | > 2 |  | 
3 | B3 | > 2 | > 40 | 
4 | B4 | > 2 |  | 
5 | B5 |  | > 40 | > 80
6 | B6 | > 2 | > 40 | > 80
7 | B7 | > 2 |  | 
8 | B8 |  |  | > 80
9 | B9 | > 2 |  | 

Source: patent US20180236053A1 (CELLECTIS, published 2018)
